Source: patent publication US9618524B2, “Method, composition, isolation and identification of a plaque particle and related biomarker” (Plaxgen Inc., priority 2012, dated 2017)

B1: CD5 antigen-like (protein)
chain: SPSGVRLVGGLHRCEGRVEVEQKGQWGTVCDDGWDIKDVAVLCRELGCGAASGTPSGILYEPPAEKEQKVLIQSVSCTGTEDTLAQCEQEEVYDCSHDEDAGASCENPESSFSPVPEGVRLADGPGHCKGRVEVKHQNQWYTVCQTGWSLRAAKVVCRQLGCGRAVLTQKRCNKHAYGRKPIWLSQMSCSGREATLQDCPSGPWGKNTCNHDEDTWVECEDPFDLRLVGGDNLCSGRLEVLHKGVWGSVCDDNWGEKEDQVVCKQLGCGKSLSPSFRDRKCYGPGVGRIWLDNVRCSGEEQSLEQCQHRFWGFHDCTHQEDVAVICSG
B2: C4b-binding protein alpha chain (protein)
chain: NCGPPPTLSFAAPMDITLTETRFKTGTTLKYTCLPGYVRSHSTQTLTCNSDGEWVYNTFCIYKRCRHPGELRNGQVEIKTDLSFGSQIEFSCSEGFFLIGSTTSRCEVQDRGVGWSHPLPQCEIVKCKPPPDIRNGRHSGEENFYAYGFSVTYSCDPRFSLLGHASISCTVENETIGVWRPSPPTCEKITCRKPDVSHGEMVSGFGPIYNYKDTIVFKCQKGFVLRGSSVIHCDADSKWNPSPPACEPNSCINLPDIPHASWETYPRPTKEDVYVVGTVLRYRCHPGYKPTTDEPTTVICQKNLRWTPYQGCEALCCPEPKLNNGEITQHRKSRPANHCVYFYGDEISFSCHETSRFSAICQGDGTWSPRTPSCGDICNFPPKIAHGHYKQSSSYSFFKEEIIYECDKGYILVGQAKLSCSYSHWSAPAPQCKALCRKPELVNGRLSVDKDQYVEPENVTIQCDSGYGVVGPQSITCSGNRTWYPEVPKCEWETPEGCEQVLTGKRLMQCLPNPEDVKMALEVYKLSLEIEQLELQRDSARQSTLDKEL
B3: Serum paraoxonase/arylesterase (protein)
chain: AKLIALTLLGMGLALFRNHQSSYQTRLNALREVQPVELPNCNLVKGIETGSEDLEILPNGLAFISSGLKYPGIKSFNPNSPGKILLMDLNEEDPTVLELGITGSKFDVSSFNPHGISTFTDEDNAMYLLVVNHPDAKSTVELFKFQEEEKSLLHLKTIRHKLLPNLNDIVAVGPEHFYGTNDHYFLDPYLQSWEMYLGLAWSYVVYYSPSEVRVVAEGFDFANGINISPDGKYVYIAELLAHKIHVYEKHANWTLTPLKSLDFNTLVDNISVDPETGDLWVGCHPNGMKIFFYDSENPPASEVLRIQNILTEEPKVTQVYAENGTVLQGSTVASVYKGKLLIGTVFHKALYCEL
B4: Angiotensinogen (protein)
chain: DRVYIHPFHLVIHNESTCEQLAKANAGKPKDPTFIPAPIQAKTSPVDEKALQDQLVLVAAKLDTEDKLRAAMVGMLANFLGFRIYGMHSELWGVVHGATVLSPTAVFGTLASLYLGALDHTADRLQAILGVPWKDKNCTSRLDAHKVLSALQAVQGLLVAQGRADSQAQLLLSTVVGVFTAPGLHLKQPFVQGLALYTPVVLPRSLDFTELDVAAEKIDRFMQAVTGWKTGCSLMGASVDSTLAFNTYVHFQGKMKGFSLLAEPQEFWVDNSTSVSVPMLSGMGTFQHWSDIQDNFSVTQVPFTESACLLLIQPHYASDLDKVEGLTFQQNSLNWMKKLSPRTIHLTMPQLVLQGSYDLQDLLAQAELPAILHTELNLQKLSNDRIRVGEVLNSIFFELEADEREPTESTQQLNKPEVLEVTLNRPFLFAVYDQSATALHFLGRVANPLSTA

How the values were obtained:
Assay in all cases: Mass spectroscopy proteomics, semi-quantitative binding affinity of serum proteins (plaqueproteome, Table 2)
Settings in all cases: higher number = stronger affinity
[1] = target: T1, alpha-synuclein plaque particles (Homo sapiens, UniProt P37840)
T1 construct: 140 amino acids polypeptide
Method: To prepare oligomers/aggregates of human alpha-synuclein (140 amino acids polypeptide), 1 mg of the recombinant alpha-synuclein protein was suspended in 1 mL of PBS and the sample was incubated at 37° C. for 2 hrs. After incubation, all the samples were centrifuged for 5 min. at 5000 rpm to remove precipitate, if any, and the supernatant containing oligomers/aggregates were used in vitro plaque particles formation assay. For detecting alpha-synuclein plaque particles Thioflavin S (Ex/Em=430 nm/550 nm) amyloid binding fluorescent dye (10 μg) was used.
Similarly, to isolate alpha-synuclein plaque particles, diluted plasma or serum samples obtained from AD subjects were used for incubation with alpha-synuclein plaque oligomers/aggregates. Each assay was performed in 1 mL reaction (800 μL of 50% plasma or serum) and 200 μL (30 μg) of the alpha-synuclein aggregates and the mixtures were incubated at 37° C. for 1 hr. To the mixture Thioflavin S dye (120 μg) was added and the sample was incubated for additional 30 min at 37° C. After the incubation, the mixture was directly used for sample acquisition using flow cytometer (FACS ARIA II, BD Biosciences, San Jose, Calif.). After initial detection of alpha-synuclein plaque particles, gates were drawn in the acquisition blot to separately sort and isolate fluorescently labeled alpha-synuclein particles.
(§1) For preparing trypsin digested peptide sequences, the isolated plaque particles were centrifuged at 10000 rpm for 5 min and the pellet containing plaque particles was resuspended in 100 μl PBS buffer. Stock solutions of digestion buffer (Ammonium Biocarbonate 50 mM), reducing buffer (DDT 100 mM) and alkylation buffer (lodoaceamide 100 mM) were prepared and stored at −20° C. for up to two months. For trypsin digestion, 100 μl of each plaque particles (2000 of Abeta-42, cholesterol, Tau and alpha-synuclein) were precipitated using cold acetone −80° C. by adding 4X's the volume. The samples were placed on dry ice for 10 min with intermittent vortex. Next, the samples were centrifuged at 4° C. at 10000 G for 10 min. Top layer of acetone was carefully removed from the tube with care not to disturb the plaque particles pellet. The samples were speed-vac for 10 min to ensure all acetone has been boiled away. The plaque particles pellet were reconstituted with 15 μl 8M Urea 100 mM Ammonium bicarbonate stock and 20 μl protease max solution. The protease max solution (Promega, Madison, Wis.) was prepared from stock by adding 60 μl 50 mM Ammonium bicarbonate and used for 3 solution digests (20 μl each). […] The tubes were incubated at 55° C. for 30 minutes. The tubes were then removed and brought to the room temperature followed by addition of 3.2 μl of 1M acrylamide and incubated at room temperature for 30 minutes. To the sample, 63 μL of 50 mM Ammonium bicarbonate was added for a final volume of 98 μl and 2 μl of trypsin (10 μg, Trypsin/Lys C Mix). After mixing the solution with pipet the samples were incubated at 37° C. overnight. After the overnight digest, the tryptic digest were quenched and acidified by adding 10 μl of 50% formic acid/water stock dilution. The samples were centrifuged at 10000 G for 2 minutes and purified using stage tip and used for MS/Mass analysis.
(§2) All MS/MS samples were analyzed using Sequest (Thermo Fisher Scientific, San Jose, Calif., USA; version 1.0). Sequest was set up to search the SUMS_uniprot_Human database (35847 entries) assuming the digestion enzyme strict trypsin. Sequest was searched with a fragment ion mass tolerance of 1.00 Da and a parent ion tolerance of 20 PPM. Propionamide of cysteine was specified in Sequest as a fixed modification. Oxidation of methionine and phospho of serine, threonine and tyrosine were specified in Sequest as variable modifications.
Scaffold (version Scaffold_4.2.1, Proteome Software Inc., Portland, Oreg.) was used to validate MS/MS based peptide and protein identifications.

[2] = target: T2, Abeta-42 plaque particles (Homo sapiens, UniProt P05067)
T2 construct: Abeta 1-42
Method: Next to isolate serum derived Abeta-42 plaque particles, the plasma or serum samples obtained from AD subjects were first centrifuged at 5,000 rpm for 5 min and the supernatants were transferred to new centrifuge tubes. Next, the supernatants were diluted in PBS to make 50% of the serum and plasma samples and used for incubation with Abeta-42 plaque oligomers/aggregates. Each assay was performed in 1 mL reaction (800 μL of 50% plasma or serum) and 200 μL (30 μg) of the Abeta-42 aggregates and the mixtures were incubated at 37° C. for 1 hr. To the mixture Thioflavin S dye (120 μg) was added and the sample was incubated for additional 30 min at 37° C. After the incubation, the mixture was directly used for sample acquisition using flow cytometer (FACS ARIA II, BD Biosciences, San Jose, Calif.). After initial detection of Abeta-42 plaque particles in the acquisition blot, gates were drawn in fluorescent dot blot to separately sort and isolate fluorescently labeled Abeta-42 particles.
as §1, §2
Scaffold (version Scaffold_4.2.1, Proteome Software Inc., Portland, Oreg.) was used to validate MS/MS based peptide and protein identifications. […] Protein probabilities were assigned by the Protein Prophet algorithm (Nesvizhskii, Al et al 2003). […] Proteins sharing significant peptide evidence were grouped into clusters. Proteins were annotated with GO terms from NCBI (downloaded Jan. 17, 2014).

Tau plaque particles = test system: Tau plaque particles; design: species or system human
Method: For Tau-74 (74-102) (Exon 3/Insert 2 domain) preparation, 1 mg of Tau-74 was suspended in 1 mL of PBS and the sample was incubated at 37° C. for 2 hrs. Similarly for preparing Tau-275 (275-305) (Repeat 2 domain) 1 mg of the peptide was suspended in 1 mL of PBS and the sample was incubated at 37° C. for 2 hrs. After incubation, all the samples were centrifuged for 5 min. at 5000 rpm to remove precipitate, if any, and the supernatant containing oligomers/aggregates were used for in vitro amyloid plaque particles formation assay. For detecting Tau plaque particles, Thioflavin S (Ex/Em=430 nm/550 nm) amyloid binding fluorescent dye (10 μg) was used in the assay.
Next, to isolate Tau plaque particles, as performed for Abeta-42 and Abeta-28 plaque particles isolation, diluted serum samples were used for incubation separately with Tau-45, Tau-74 and Tau-275 oligomers/aggregates. Each assay was performed in 1 mL reaction (800 μL of 50% plasma or serum) and 200 μL (30 μg) of each Tau aggregates and the mixtures were incubated at 37° C. for 1 hr. To the each mixture Thioflavin S dye (120 μg) was added and the sample was incubated for additional 30 min at 37° C. After the incubation, each sample was directly used for sample acquisition using flow cytometer (FACS ARIA II, BD Biosciences, San Jose, Calif.). After initial detection of Tau plaque particles, gates were drawn in the acquisition blot to separately sort and isolate fluorescently labeled Tau plaque particles.
as §1, §2

[3] = test system: High Density cholesterol (Chl Large) plaque particles; design: species or system human
Method: (§3) The goal was to isolate plaque particles synthesized in the bio-fluids in a relatively pure form to enable their subsequent use for identification of components that contribute to the plaque formation. In order to isolate cholesterol plaque particles, the plasma or serum samples obtained from atherosclerotic subjects were first centrifuged at 5,000 rpm for 5 min and the supernatants were transferred to new centrifuge tubes. Next, the supernatants were diluted in PBS to make 50% of the serum and used for incubation with cholesterol oligomers/aggregates. Each assay was performed in 1 mL reaction (800 μL of 50% plasma or serum) and 200 μL (30 μg) of the Cholesterol aggregates and the mixtures were incubated at 37° C. for 1 hr After the incubation, the mixture was directly used for sample acquisition using flow cytometer (FACS ARIA II, BD Biosciences, San Jose, Calif.). […] In order to isolate these fractions, three sets of gates were drawn in the acquisition blot to separately sort and isolate High density or high complex cholesterol particles, Low density or low complex cholesterol particles and both High and low density cholesterol particles together.
as §1, §2
(§4) Scaffold (version Scaffold_4.2.1, Proteome Software Inc., Portland, Oreg.) was used to validate MS/MS based peptide and protein identifications. […] Protein probabilities were assigned by the Protein Prophet algorithm (Nesvizhskii, Al et al 2003).

[4] = test system: Low density cholesterol (Chl small) plaque particles; design: species or system human
Method: as §3, §1, §2, §4

| Molecule | Semi-quantitative analysis of proteins binding to different plaque particles: Synuclein [1] | Semi-quantitative analysis of proteins binding to different plaque particles: Abeta-42 [2] | Semi-quantitative analysis of proteins binding to different plaque particles: Tau (Tau plaque particles) | Semi-quantitative analysis of proteins binding to different plaque particles: Chl Large [3] | Semi-quantitative analysis of proteins binding to different plaque particles: Chl small [4] |
| --- | --- | --- | --- | --- | --- |
| B1 | 6 | 4 | 3 | 6 | 7 |
| B2 | 7 | 0 | 1 | 8 | 8 |
| B3 | 7 | 2 | 3 | 5 | 6 |
| B4 | 7 | 14 | 15 | 10 | 9 |
